T1: gD epitope-tagged human LgR5 (full-length) expressed on transfected 293 cells (human, UniProt O75473 22-907)
T1 construct: also called gD-tagged human LgR5
T1 sequence: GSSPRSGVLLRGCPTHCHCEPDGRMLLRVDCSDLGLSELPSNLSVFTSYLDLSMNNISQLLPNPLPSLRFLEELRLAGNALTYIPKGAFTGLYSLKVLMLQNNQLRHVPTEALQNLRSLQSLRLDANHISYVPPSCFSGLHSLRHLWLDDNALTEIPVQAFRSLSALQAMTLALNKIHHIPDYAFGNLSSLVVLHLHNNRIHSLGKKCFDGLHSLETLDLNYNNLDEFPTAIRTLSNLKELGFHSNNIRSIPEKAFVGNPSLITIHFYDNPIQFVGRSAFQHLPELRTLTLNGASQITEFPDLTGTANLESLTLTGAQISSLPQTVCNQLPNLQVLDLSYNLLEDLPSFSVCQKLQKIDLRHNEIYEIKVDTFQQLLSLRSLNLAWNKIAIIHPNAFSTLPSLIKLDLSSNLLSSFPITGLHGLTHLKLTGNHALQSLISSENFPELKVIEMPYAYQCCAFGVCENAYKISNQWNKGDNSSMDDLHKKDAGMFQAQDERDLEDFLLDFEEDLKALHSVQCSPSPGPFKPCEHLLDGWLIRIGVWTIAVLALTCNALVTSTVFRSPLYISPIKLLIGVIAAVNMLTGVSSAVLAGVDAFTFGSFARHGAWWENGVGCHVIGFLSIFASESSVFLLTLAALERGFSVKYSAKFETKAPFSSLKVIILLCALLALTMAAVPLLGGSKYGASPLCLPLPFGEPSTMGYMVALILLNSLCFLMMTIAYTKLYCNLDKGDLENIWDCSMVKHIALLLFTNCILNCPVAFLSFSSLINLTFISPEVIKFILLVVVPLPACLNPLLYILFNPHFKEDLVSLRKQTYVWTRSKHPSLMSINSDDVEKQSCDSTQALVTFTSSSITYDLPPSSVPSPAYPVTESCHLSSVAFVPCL

T2: gD epitope-tagged mouse LgR5 expressed on stably transfected 293 cells (mouse, UniProt Q9Z1P4 22-907)
T2 construct: also called gD-tagged mouse LgR5
T2 sequence: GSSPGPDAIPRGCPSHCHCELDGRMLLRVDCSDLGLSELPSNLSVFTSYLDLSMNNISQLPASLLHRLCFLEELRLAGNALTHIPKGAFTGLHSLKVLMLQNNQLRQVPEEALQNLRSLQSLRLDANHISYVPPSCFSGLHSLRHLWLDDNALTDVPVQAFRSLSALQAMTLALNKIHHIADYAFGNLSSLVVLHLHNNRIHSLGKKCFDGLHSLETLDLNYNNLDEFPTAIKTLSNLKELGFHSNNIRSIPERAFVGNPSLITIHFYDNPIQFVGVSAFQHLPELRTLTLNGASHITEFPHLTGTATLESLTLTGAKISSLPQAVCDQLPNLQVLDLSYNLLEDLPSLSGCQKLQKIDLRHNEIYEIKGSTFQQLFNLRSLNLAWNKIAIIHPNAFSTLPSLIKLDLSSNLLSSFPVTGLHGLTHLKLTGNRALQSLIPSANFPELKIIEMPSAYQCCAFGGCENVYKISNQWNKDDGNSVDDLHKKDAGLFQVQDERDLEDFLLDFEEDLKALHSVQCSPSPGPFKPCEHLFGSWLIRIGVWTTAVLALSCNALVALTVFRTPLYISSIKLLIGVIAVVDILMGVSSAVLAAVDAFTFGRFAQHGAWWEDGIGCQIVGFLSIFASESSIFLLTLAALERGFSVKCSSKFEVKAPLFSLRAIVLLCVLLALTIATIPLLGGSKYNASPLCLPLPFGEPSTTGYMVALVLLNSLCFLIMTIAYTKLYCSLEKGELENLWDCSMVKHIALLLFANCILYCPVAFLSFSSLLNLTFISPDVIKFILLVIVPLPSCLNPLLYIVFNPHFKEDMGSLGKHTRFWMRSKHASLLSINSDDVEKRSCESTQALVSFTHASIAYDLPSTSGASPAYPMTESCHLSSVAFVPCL


Key:
[1] = target: T1, gD epitope-tagged human LgR5 …; assay: Scatchard analysis, 125I-labelled antibody competed by unlabelled antibody on stably transfected 293 cells
Protocol: (§1) Scatchard analysis was performed following standard procedures (Holmes et al., Science 256:1205-1210 (1992)) to determine the relative binding affinities of YW353, ch8E11 and hu8E11v2 antibodies.
(§2) Anti-LgrS antibodies were [I¹²⁵] labeled using the indirect Iodogen method. […] Competition assay mixtures of 50 μL volume containing a fixed concentration of [I¹²⁵] labeled antibody and decreasing concentrations of serially diluted, unlabeled antibody were placed into 96-well plates. 293 cells stably expression human, rat, or mouse LgrS were cultured in growth media at 37° C. in 5% CO₂. Cells were detached from the flask using Sigma Cell Dissociation Solution and were washed with binding buffer, which consisted of Dulbecco's Modified Eagle Medium (DMEM) with 2% fetal bovine serum (FBS), 50 mM HEPES (pH 7.2) and 0.1% sodium azide. The washed cells were added to the 96 well plates at a density of 250,000 cells in 0.2 mL of binding buffer. The final concentration of the labeled antibody in each well was […]. The final concentration of the unlabeled antibody in the competition assay ranged from 500 nM through ten 2-fold diluation steps to a 0 nM buffer-only assay. Competition assays were carried out in triplicate. Competition assays were incubated for 2 hours at room temperature. After the 2-hour incubation, the competition assays were transferred to a Millipore Multiscreen filter plate (Billerica, Mass.) and washed 4 times with binding buffer to separate the free from bound [I¹²⁵] labeled antibody. The filters were counted on a Wallac Wizard 1470 gamma counter (PerkinElmer Life and Analytical Sciences Inc.; Wellesley, Mass.). The binding data was evaluated using NewLigand software (Genentech), which uses the fitting algorithm of Munson and Robard to determine the binding affinity of the antibody (Munson and Robard 1980)

[2] = target: T2, gD epitope-tagged mouse LgR5 expressed …; assay: as above
Protocol: as §1, §2

Row | Kd [1] | Kd [2] | Binder
1 | 0.2 nM | – | human antibody YW353 (antibody, human IgG1, kappa, V domains shown, also called huYW353) VH: EVQLVESGGGLVQPGGSLRLSCAASGFTFTSYSISWVRQAPGKGLEWVAEIYPPGGYTDYADSVKGRFTISADTSKNTAYLQMNSLRAEDTAVYYCAKARLFFDYWGQGTLVTVSS VL: DIQMTQSPSSLSASVGDRVTITCRASQDVSTAVAWYQQKPGKAPKLLIYSASFLYSGVPSRFSGSGSGTDFTLTISSLQPEDFATYYCQQSYTTPPTFGQGTKVEIKR
2 | – | 0.5 nM | humanized monoclonal antibody 8E11.v2 (antibody, human IgG1, kappa, V domains shown, It was assessed as an IgG; also called hu8E11.v2; hu8E11v2) VH: EVQLVQSGAEVKKPGASVKVSCKASGYTFSAYWIEWVRQAPGQGLEWIGEILPGSDSTDYNEKFKVRATFTSDTSTSTVYLELSSLRSEDTAVYYCARGGHYGSLDYWGQGTLVTVSS VL: DIVMTQSPDSLAVSLGERATINCRASESVDNYGNSFMHWYQQKPGQPPKLLIYLASNLESGVPDRFSGSGSGTDFTLTISSLQAEDVAVYYCQQNYEDPFTFGQGTKVEIKR
3 | 0.4 nM | 0.2 nM | chimeric monoclonal antibody 8E11 (antibody, human IgG1, V domains shown, also called ch8E11; chimeric 8E11) VH: QVQLQQSGTELMKPGASVKISCKATGYTFSAYWIEWIKQRPGHGLEWIGEILPGSDSTDYNEKFKVKATFSSDTSSNTVYIQLNSLTYEDSAVYYCARGGHYGSLDYWGQGTTLKVSS VL: NIVLTQSPASLAVSLGQRATISCRASESVDNYGNSFMHWYQQKPGQPPKLLIYLASNLESGVPARFSGSGSRTDFTLTIDPVEADDAATYYCQQNYEDPFTFGSGTKVEIKR
